Reference: patent US20120021972A1 (CADILA HEALTHCARE, published 2012)
Starred links: 1 amine or outer side, 2 acyl side, 3 side chain; linkers in the order of their positions; H or OH if unused. Non-standard residues stand in square brackets, D forms with d. No end group written: not given here. AMCB = 2-amino-5-(4-chloro-2-methylphenyl)pentanoic acid, Cc1cc(Cl)ccc1CCC[C@H](N[*:1])C(=O)[*:2]; 2CF3,4F‑APPA = 2-amino-5-(4-fluoro-2-(trifluoromethyl)phenyl)pentanoic acid; 2CF3‑APPA = 2-amino-5-(2-(trifluoromethyl)phenyl)pentanoic acid; Bip(2'-Et-4'-OMe) = CCc1cc(OC)ccc1-c1ccc(C[C@H](N)C(=O)O)cc1; Leu(5,5,5,5',5',5'-F6) = N[C@@H](CC(C(F)(F)F)C(F)(F)F)C(=O)O; Nva(5-(3,5-Me2Ph)) = Cc1cc(C)cc(CCC[C@H](N)C(=O)O)c1; 2F‑APPA = 2-amino-5-(2-fluorophenyl)pentanoic acid; αMePhe(2-F) = C[C@](N)(Cc1ccccc1F)C(=O)O; hhPhe = N[C@@H](CCCc1ccccc1)C(=O)O; CNB = not defined here; Ac3c = NC1(C(=O)O)CC1; Aib = CC(C)(N)C(=O)O

Key:
Test in all cases: cell-based or functional assay
human glucagon receptor = human glucagon receptor (human, UniProt P47871 26-477)
human GLP-1 receptor [1] = target: T1, human GLP-1 receptor (human, UniProt P43220 24-463)
T1 sequence (P43220 24-463): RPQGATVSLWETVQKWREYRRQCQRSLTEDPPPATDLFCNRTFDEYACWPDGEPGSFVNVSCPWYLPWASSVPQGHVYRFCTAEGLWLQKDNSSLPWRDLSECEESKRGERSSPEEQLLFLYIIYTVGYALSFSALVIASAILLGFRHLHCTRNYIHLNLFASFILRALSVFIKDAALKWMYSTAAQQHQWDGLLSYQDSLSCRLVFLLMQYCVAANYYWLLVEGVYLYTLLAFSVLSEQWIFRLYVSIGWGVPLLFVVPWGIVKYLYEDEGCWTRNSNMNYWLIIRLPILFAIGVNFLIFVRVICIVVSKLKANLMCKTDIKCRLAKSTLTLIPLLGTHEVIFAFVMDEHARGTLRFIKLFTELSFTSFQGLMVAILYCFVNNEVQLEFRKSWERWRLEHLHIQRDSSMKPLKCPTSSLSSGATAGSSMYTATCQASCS

human GLP-1 receptor [2] = target: T1, human GLP-1 receptor; remark: listed apart in the source

inhibition of cAMP production, 1 nM (human glucagon receptor) [pmol/ml/µg prt]	inhibition of cAMP production, 10 nM (human glucagon receptor) [pmol/ml/µg prt]	inhibition of cAMP production, 100 nM (human glucagon receptor) [pmol/ml/µg prt]	inhibition of cAMP production, 1 µM (human glucagon receptor) [pmol/ml/µg prt]	inhibition of cAMP production, 10 µM (human glucagon receptor) [pmol/ml/µg prt]	cAMP release, % activity, 1 nM (human GLP-1 receptor [1]) [%]	cAMP release, % activity, 10 nM (human GLP-1 receptor [1]) [%]	cAMP release, % activity, 100 nM (human GLP-1 receptor [1]) [%]	cAMP release, % activity, 1 µM (human GLP-1 receptor [1]) [%]	cAMP release, % activity, 10 µM (human GLP-1 receptor [1]) [%]	EC50, cAMP, H GLP-1 R assay (human GLP-1 receptor [2]) [nM]	Binder
6	5	2	0	0	62	94	99	99	99		H[Aib][CNB]GTFTSD[Bip(2'-Et-4'-OMe)][2CF3‑APPA] (reading uncertain) [Seq. ID. No. 79: H-Aib-(CNB)-GTFTSD-Bip(OMe)-(2CF3-APPA)]
21	19	18	18	16	96	99	99	99	99		H[Aib][Leu(5,5,5,5',5',5'-F6)]GT[αMePhe(2-F)]TSD[Bip(2'-Et-4'-OMe)][AMCB] [Seq. ID. No. 237: H-Aib-(Hfl)-GT-(α-Me-2F-Phe)-TSD-Bip(OMe)-(AMCB)]
9	6	5	3	0	45	84	90	99	99		H[Ac3c]QGTFTSD[Bip(2'-Et-4'-OMe)][2CF3,4F‑APPA] [Seq. ID. No. 72: H-(ACP)-QGTFTSD-Bip(OMe)-(2CF3,4F-APPA)]
20	18	16	14	12	40	81	87	95	98		H[Aib][CNB]GTFTSD[Bip(2'-Et-4'-OMe)][2F‑APPA] (reading uncertain) [Seq. ID. No. 77: H-Aib-(CNB)-GTFTSD-Bip(OMe)-(2F-APPA)]

The remaining lines, values behind:

Binder	inhibition of cAMP production, 1 nM (human glucagon receptor) [pmol/ml/µg prt]	inhibition of cAMP production, 10 nM (human glucagon receptor) [pmol/ml/µg prt]	inhibition of cAMP production, 100 nM (human glucagon receptor) [pmol/ml/µg prt]	inhibition of cAMP production, 1 µM (human glucagon receptor) [pmol/ml/µg prt]	inhibition of cAMP production, 10 µM (human glucagon receptor) [pmol/ml/µg prt]	cAMP release, % activity, 1 nM (human GLP-1 receptor [1]) [%]	cAMP release, % activity, 10 nM (human GLP-1 receptor [1]) [%]	cAMP release, % activity, 100 nM (human GLP-1 receptor [1]) [%]	cAMP release, % activity, 1 µM (human GLP-1 receptor [1]) [%]	cAMP release, % activity, 10 µM (human GLP-1 receptor [1]) [%]	EC50, cAMP, H GLP-1 R assay (human GLP-1 receptor [2]) [nM]
H[Aib][CNB]GTFTSD[Bip(2'-Et-4'-OMe)][hhPhe] (reading uncertain) [Seq. ID. No. 29: H-Aib-(CNB)-GTFTSD-Bip(OMe)-(APPA)]	20	18	16	14	12	96	99	99	99	99	
HSQGTFTSD[Bip(2'-Et-4'-OMe)][2F‑APPA] [Seq. ID. No. 45: HSQGTFTSD-Bip(OMe)-(2F-APPA)]	15	12	8	4	2	51	86	91	99	99	
H[Aib][CNB]GTFTSD[Bip(2'-Et-4'-OMe)][Nva(5-(3,5-Me2Ph))] (reading uncertain) [Seq. ID. No. 30: H-Aib-(CNB)-GTFTSD-Bip(OMe)-(ADMP)]	22	21	20	18	18	38	78	86	95	98	
H[Aib]QGT[αMePhe(2-F)]TSD[Bip(2'-Et-4'-OMe)][AMCB] [Seq. ID. No. 40: H-Aib-QGT-(α-Me-2F-Phe)-TSD-Bip(OMe)-(AMCB)]	18	16	12	8	6	38	77	85	94	97	
H[Aib]QGT[αMePhe(2-F)]TSD[Bip(2'-Et-4'-OMe)][Nva(5-(3,5-Me2Ph))] [Seq. ID. No. 38: H-Aib-QGT-(α-Me-2F-Phe)-TSD-Bip(OMe)-(ADMP)]											0.34
